Numbering of substitutions follows the chain as printed. Names may count otherwise.

The target in assay [1] is His6-tagged integrin α2A domain, wild type (human) (UniProt P17301). Kind of assay: ELISA; His-tagged α2A domain (wt or mutant) coated on microtiter wells at 10 μg/ml in TBS/Mg pH 7.4; titrated with RCαβγδ or RCγδ without and with NPS-modified tryptophans in 1% BSA/TBS, 2 mM MgCl2, 1.5 h; bound RC fixed with glutaraldehyde and detected with rabbit RC antiserum, OD 405 nm; Kd by nonlinear regression. Background: ELISA stands for enzyme-linked immunosorbent assay.
Chain of UniProt P17301 (P17301 142-337 Y216G): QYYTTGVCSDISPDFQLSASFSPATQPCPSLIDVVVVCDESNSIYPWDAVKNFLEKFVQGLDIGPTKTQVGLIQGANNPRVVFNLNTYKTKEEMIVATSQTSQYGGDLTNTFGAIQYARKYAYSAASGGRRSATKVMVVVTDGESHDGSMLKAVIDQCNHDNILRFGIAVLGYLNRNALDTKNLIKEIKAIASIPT

Assay [2] addresses disulfide-locked α2A domain, “closed” conformation (C150A, C270A, K168C, A325C) (human) (UniProt P17301). Described as above.
Assay [3] deals with His6-tagged integrin α2A domain, wild type (human) (UniProt P17301). Kind of assay: ELISA; α2A wt or mutants (10 μg/ml) captured on immobilised mAb JA218 (2.5 μg/ml), TBS/Mg; titrated with RC; bound RC fixed and detected with rabbit RC antiserum; Kd by nonlinear regression.
Assay [4] addresses α2A domain D219A mutant (human) (UniProt P17301). Described as above.
Assay [5] deals with α2A-L2^α1 mutant (loop 2 of α2A replaced by the loop 2 sequence of the integrin α1 A-domain) (human) (UniProt P17301). Described as above.
The target of assay [6] is α2A domain S214G mutant (human) (UniProt P17301). The description is as above.
Assay [7] has as its target α2A domain Y216G mutant (human) (UniProt P17301). The description is as above.
In assay [8] the target is T1, rhodocetin heterotetramer (RCαβγδ).
T1 chain 1: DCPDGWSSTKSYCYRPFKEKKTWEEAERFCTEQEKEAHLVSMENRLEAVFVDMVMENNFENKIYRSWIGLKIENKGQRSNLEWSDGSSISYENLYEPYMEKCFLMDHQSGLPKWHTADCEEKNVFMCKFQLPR
T1 chain 2: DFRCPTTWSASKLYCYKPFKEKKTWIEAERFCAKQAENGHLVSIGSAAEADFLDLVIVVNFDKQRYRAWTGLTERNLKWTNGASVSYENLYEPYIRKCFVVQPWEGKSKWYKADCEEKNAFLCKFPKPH
T1 chain 3: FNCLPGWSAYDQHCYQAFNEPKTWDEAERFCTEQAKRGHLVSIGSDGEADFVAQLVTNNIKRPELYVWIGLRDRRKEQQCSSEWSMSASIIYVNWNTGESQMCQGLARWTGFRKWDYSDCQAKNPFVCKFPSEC
T1 chain 4: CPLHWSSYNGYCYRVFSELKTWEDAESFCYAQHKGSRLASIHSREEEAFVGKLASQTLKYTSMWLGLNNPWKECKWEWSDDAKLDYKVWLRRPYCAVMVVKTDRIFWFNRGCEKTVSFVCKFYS
Kind of assay: ELISA. The conditions noted are these: chain shown with the change; for percent of parent (% of wild type α2A): read at the highest rhodocetin concentration (about 70 nM), α2A captured by immobilized antibody JA218.

On to “rhodocetin heterotetramer (RCαβγδ) (complex)”, for which the Kd (as a rule, a measure of binding affinity in units of concentration) in assay [1] amounted to 0.29 nM; in assay [2], 0.21 nM; in assay [3], 0.76 nM; in assay [4] it was 5.2 nM; in assay [5], 2.7 nM; in assay [6], 0.77 nM. Further, the Kd in assay [7] was found to be 1.98 nM.

B1: His6-tagged integrin α2A domain, wild type, P17301 C150A; C270A; K168C; E318C (protein)
chain: SLIDVVVVADESNSIYPWDAVKNFLECFVQGLDIGPTKTQVGLIQYANNPRVVFNLNTYKTKEEMIVATSQTSQYGGDLTNTFGAIQYARKYAYSAASGGRRSATKVMVVVTDGESHDGSMLKAVIDQANHDNILRFGIAVLGYLNRNALDTKNLIKEIKAIASIPTERYFFNVSDCAALLEKAGTLGEQIFSIEG
Regarding B1, the response in assay [8] (read at the highest RCαβγδ concentration (about 23 nM), α2A immobilized at 10 μg/ml, parent: est. 2.6, read off a plot) is 0.38 OD405nm. The Kd in assay [8] (α2A immobilized to microtiter plates at 10 μg/ml, titrated with RCαβγδ, OD405) stood at 2.64 nM.

B2: His6-tagged integrin α2A domain, wild type, P17301 G217K (protein)
chain: B1 chain with A9C, C27K, G76K, A129C, C177E
In the case of B2, the percent of parent (% of wild type α2A) in assay [8] (read off a plot) was found to be 11.

B3: His6-tagged integrin α2A domain, wild type, P17301 G218L (protein)
chain: B1 chain with A9C, C27K, G77L, A129C, C177E
Take B3: the percent of parent (% of wild type α2A) in assay [8] (read off a plot) stood at 12.
